Experimental data from patent publication EP4806514A2 (Lepu Biopharma Co., Ltd., dated 2025).
Numbering of substitutions follows the chain as printed.

T1: hCDH17-his (full length extracellular domain of human CDH17, Q23-M787, his tag at the C-terminal) (human, UniProt Q12864 23-787)
T1 construct: Limits of the construct (UniProt Q12864, Q23-M787, C-terminal his tag); also called human CDH17-his protein; human CDH17 protein
T1 sequence: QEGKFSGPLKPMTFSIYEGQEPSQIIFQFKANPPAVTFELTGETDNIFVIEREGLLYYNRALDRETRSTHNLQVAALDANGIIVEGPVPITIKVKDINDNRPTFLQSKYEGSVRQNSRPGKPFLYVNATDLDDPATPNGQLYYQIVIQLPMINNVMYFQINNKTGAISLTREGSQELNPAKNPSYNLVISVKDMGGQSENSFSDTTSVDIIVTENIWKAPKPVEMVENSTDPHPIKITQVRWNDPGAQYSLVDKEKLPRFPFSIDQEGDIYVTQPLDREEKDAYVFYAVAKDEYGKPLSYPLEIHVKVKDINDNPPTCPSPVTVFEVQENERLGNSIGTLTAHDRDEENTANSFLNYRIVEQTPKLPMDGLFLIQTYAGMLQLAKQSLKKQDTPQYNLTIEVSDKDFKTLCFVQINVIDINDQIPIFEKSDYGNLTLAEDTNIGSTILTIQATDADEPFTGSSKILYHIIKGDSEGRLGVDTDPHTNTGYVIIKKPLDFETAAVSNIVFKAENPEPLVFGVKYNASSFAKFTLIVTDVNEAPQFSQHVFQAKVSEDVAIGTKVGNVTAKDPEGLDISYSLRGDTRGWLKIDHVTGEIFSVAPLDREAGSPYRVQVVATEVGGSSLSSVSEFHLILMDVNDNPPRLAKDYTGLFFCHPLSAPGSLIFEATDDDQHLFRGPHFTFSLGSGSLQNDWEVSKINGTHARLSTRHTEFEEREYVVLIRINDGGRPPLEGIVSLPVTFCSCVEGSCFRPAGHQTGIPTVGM

T2: human CDH17, full length, expressed on cells (HEK293-hCDH17); AsPC-1, HCT-8, AGS, LoVo, KATO III, HT-29 tumor … (human, UniProt Q12864 23-832)
T2 construct: also called human CDH17 expressed on tumor cells
T2 sequence: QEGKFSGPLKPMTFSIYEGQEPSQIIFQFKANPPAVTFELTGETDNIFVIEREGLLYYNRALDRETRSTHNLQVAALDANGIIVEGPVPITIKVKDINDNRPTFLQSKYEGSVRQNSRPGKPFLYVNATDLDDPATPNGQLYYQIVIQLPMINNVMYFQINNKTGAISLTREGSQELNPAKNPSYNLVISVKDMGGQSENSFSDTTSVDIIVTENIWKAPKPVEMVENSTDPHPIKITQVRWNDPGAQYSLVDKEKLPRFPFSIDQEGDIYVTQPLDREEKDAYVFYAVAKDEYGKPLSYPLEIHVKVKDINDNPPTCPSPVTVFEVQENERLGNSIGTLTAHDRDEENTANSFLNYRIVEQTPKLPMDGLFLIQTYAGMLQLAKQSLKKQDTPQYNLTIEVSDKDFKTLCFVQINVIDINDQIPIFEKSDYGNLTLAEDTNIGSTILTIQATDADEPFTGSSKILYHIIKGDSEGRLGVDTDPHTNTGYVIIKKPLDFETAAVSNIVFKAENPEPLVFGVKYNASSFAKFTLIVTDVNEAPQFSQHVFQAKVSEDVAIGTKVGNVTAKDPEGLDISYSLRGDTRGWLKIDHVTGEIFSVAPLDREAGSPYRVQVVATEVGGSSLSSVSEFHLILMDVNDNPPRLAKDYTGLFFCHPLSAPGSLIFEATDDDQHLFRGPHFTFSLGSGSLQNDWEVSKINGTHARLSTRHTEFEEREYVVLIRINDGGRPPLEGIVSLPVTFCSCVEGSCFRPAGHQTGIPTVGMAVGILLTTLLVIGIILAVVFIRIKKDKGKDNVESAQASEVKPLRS

T3: human CDH16 protein (hCDH16-his, Novoprotein, Cat. No. CJ16) (human, UniProt O75309 19-786)
T3 construct: Bought; also called human CDH16-his
T3 sequence (looked up): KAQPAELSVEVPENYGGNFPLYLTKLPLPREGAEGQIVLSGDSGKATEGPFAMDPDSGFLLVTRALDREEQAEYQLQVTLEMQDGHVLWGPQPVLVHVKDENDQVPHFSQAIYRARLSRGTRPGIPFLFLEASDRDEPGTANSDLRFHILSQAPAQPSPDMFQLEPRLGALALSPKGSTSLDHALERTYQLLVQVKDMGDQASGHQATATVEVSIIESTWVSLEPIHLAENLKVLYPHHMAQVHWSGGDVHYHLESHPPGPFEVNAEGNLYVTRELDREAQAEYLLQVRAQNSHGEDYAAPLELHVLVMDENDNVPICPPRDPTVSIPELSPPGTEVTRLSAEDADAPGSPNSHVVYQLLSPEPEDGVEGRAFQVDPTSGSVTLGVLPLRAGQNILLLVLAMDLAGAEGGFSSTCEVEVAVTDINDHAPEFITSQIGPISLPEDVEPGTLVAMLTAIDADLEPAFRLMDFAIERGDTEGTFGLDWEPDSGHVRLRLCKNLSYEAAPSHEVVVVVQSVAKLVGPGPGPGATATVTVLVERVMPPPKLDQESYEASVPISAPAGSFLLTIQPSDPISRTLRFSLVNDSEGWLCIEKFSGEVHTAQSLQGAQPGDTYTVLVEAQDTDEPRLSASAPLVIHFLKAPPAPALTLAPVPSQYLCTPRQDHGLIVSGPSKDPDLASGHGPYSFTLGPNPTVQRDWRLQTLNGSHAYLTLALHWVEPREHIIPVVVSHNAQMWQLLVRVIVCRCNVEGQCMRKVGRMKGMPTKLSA

B1: 29H8D3-z12p15 (antibody, V domains shown)
VH: QVQLVQSGAEVKKPGASVKVSCKASGYTFTDHTIHWMRQRPGQGLEWIGYIYPRDGYTKYNEKFKDRATLTADTSTSTAYMELRSLRSDDTAVYYCARFYYGYWYFDVWGQGTTVTVSS
VL: DIVMTQSPLSLPVTPGEPASISCRSSKSLLRSNGNTYLYWFLQKPGQSPQVLIYRMSNLASGVPDRFSGSGSGTDFTLKISRVEAEDVGVYYCNQHLEYPFTFGQGTKLEIK
notes: PTM-removed variant of 29H8D3-z12; VH is that of 29H8D3-z12
B2: 29H8D3-z12p16 (antibody, V domains shown)
VH: B1 VH
VL: B1 VL with N94Q
notes: as for B1
B3: 29H8D3-z12p17 (antibody, V domains shown)
VH: B1 VH
VL: B1 VL with N94G
notes: as for B1
B4: 29H8D3-z12p21 (antibody, V domains shown)
VH: B1 VH
VL: B1 VL with N94I
notes: as for B1
B5: 29D2D7-z19p1 (antibody, V domains shown)
VH: QVQLVQSGAEVKKPGASVKVSCKASGYTFTDYDMHWVKQAPGQGLEWIGGFDPESAGTVYNLRFKDKATLTADKSTSTAYMELRSLRSEDTAVYYCARKGYYSVSSPFTYWGQGTLVTVSS
VL: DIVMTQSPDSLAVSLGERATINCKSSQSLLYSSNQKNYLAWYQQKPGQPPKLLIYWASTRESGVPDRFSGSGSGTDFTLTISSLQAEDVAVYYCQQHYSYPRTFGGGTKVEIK
notes: PTM-removed variant of 29D2D7-z19 (VL CDR3 cysteine replaced)
B6: 29D2D7-z19p2 (antibody, V domains shown)
VH: B5 VH
VL: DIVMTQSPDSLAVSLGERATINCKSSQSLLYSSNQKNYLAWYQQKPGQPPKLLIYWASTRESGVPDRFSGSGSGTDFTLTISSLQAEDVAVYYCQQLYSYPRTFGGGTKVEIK
notes: PTM-removed variant of 29D2D7-z19; VH is that of 29D2D7-z19
B7: 20C3E8 chimeric mAb (antibody, V domains shown)
VH: QVQLQQSGAELARPGASVKLSCKASGYTFTSYGISWVKQRTGQGLEWIGEIYPRSGNTYYNEKFKGKATLTADKSSSTAYMELRSLTSEDSAVYFCSRLDYGTSPFDYWGQGTTLTVSS
VL: NIVMTQSPKSMSMSVGERVTLSCKASENVGTFVSWYQHKPEQSPKLLIYGASNRYTGVPDRFTGSGSATDFTLTISSVQAEDLADYHCGQSYSYPYTFGGGTKLEIK
notes: Mouse variable regions fused to human IgG1 constant region
B8: 61C7F12 chimeric mAb (antibody, V domains shown)
VH: EVQLVESGGGLVKPGGSLKLSCAASGFTFSSYAMSWVRQTPEKRLEWVATINIGGSYTYYPDSVKGRFTISRDNAKNTLYLQMSSLRSEDTAMYYCARQEGRYWYFDVWGAGTTVTVSS
VL: QIVLTQSPAIMSASLGERVTMTCTASSSVSSSYLHWYQQKPGSSPKLWIYSTSNLASGVPARFSGSGSGTSYSLTISSMEAEDAATYYCHQFHRSPYTFGGGTKLEIK
notes: as for B7
B9: 67A11B11 chimeric mAb (antibody, V domains shown)
VH: EIQLQQSGPELVKPGASVKVSCKASGYAFTTYNMYWVKQSHGQSLEWIGYIDPYNGVTIYNQKFKGTATLTVDKSSSTAYMHLNSLSSEDSAVYYCTITAATLDAMDYWGQGTSVTVSS
VL: DIVMTQSHKFMSTSVGDRVSITCKASQNVATAVAWYQQKPGQSPKVLIYWTSTRHNGVPDRFTGSGSGTDFTLTISNVQSEDLADYFCQQYNSHPLTFGAGTRLELK
notes: as for B7
B10: 69E3H11 chimeric mAb (antibody, V domains shown)
VH: QVQLQQPGAELVKPGASVKLSCKASGYTFTTYWMHWVKQRPGQGLEWIGEIDPSDSYANYNQKFKGKATLTVDKSSSTAYMQLSSLTSEDSAVYYCALYYGYGDWGQGTTLTVSS
VL: EIVLTQSPTTMAASPGEKIIITCSVSSSISSIHLHWYQQKPGFSPKLLIYRTSNLASGVPTRFSGSGSGTSYSLTIGTMEAEDVATYYCQQGSNLPLTFGAGTRLELK
notes: as for B7
B11: 95F2C2F12 chimeric mAb (antibody, V domains shown)
VH: QVQLQQSGAELMKPGASVKLSCKATGYTFTGYWIEWIKQRPGHGLEWIGEILPGSGSTNYNEKFKGKATFTADTSSNTAYMELSSLTTEDSAIYYCARAGYNNWGQGTTLTVSS
VL: DIQMTQSPSSLSASLGERVSLTCRASQDIGRSVNWLQQEPDGTIKRLIYATSSLESGVPKRFSGSRSGSDYFLTISSLESEDFVDYYCLQYASSPLTFGAGTKLELK
notes: as for B7
B12: 103G6G1 chimeric mAb (antibody, V domains shown)
VH: EVKLVESEGGLVQPGSSMKLSCTASGFTFSDFYMAWVRQVPEKGLEWVANINYDSTITYYLDSLKSRFIISRDNAENILYLQMSSLKSEDTATYYCARLLYYYGSLYFDVWGTGTTVTVSS
VL: DIQMTQSPASLSASVGETVTITCRASENIYSYLAWYQQKQGKSPQLLVYDAKTLAEGVPSRFSGSGSGTQFSLKINSLQPEDFGSYYCQHHYGIPITFGAGTNLELK
notes: as for B7
B13: 29H8D3 chimeric mAb (antibody, V domains shown)
VH: QVQLQQSDAELVKPGASVKISCKVSGYTFTDHTIHWMKQRPEQGLEWIGYIYPRDGYTKYNEKFKDKATLTADKSSSTAYIQLNTLTSEDSAVYFCARFYYGYWYFDVWGTGTTVTVSS
VL: DIVMTQAAPSVPVTPGESVSISCRSSKSLLRSNGNTYLYWFLQRPGQSPQVLIYRMSNLASGVPDRFSGSGSGTAFTLRISRVEAEDVGVYYCMQHLEYPFTFGAGTKLELK
notes: as for B7

Columns and labels:
[1] = target: T1, hCDH17-his (full length extracellular …); assay: SPR (Biacore 8K), two doses, antibody captured on Protein A chip, hCDH17-his at 25 nM and 100 nM
[2] = target: T2, human CDH17, full length, expressed on …; assay: flow cytometry, HCT-8 cells
[3] = target: T3, human CDH16 protein (hCDH16-his, …); assay: ELISA, hCDH16-his coated at 1 ug/mL
[4] = target: T2, human CDH17, full length, expressed on …; assay: flow cytometry, HEK293-hCDH17 cells
[5] = target: T1, hCDH17-his (full length extracellular …); assay: SPR (Biacore 8K), antibody captured on Protein A chip, hCDH17-his injected

Binder | binding result [1] | binding result [2] | binding result [3] | binding result [4] | binding result [5]
B1 | binds | – | – | – | –
B2 | binds | – | – | – | –
B3 | binds | – | – | – | –
B4 | binds | – | – | – | –
B5 | – | binds | – | – | –
B6 | – | binds | – | – | –
B7 | – | – | no binding (tested: titrated from 100 nM) | binds | binds
B8 | – | – | no binding (tested: titrated from 100 nM) | binds | binds
B9 | – | – | no binding (tested: titrated from 100 nM) | binds | binds
B10 | – | – | no binding (tested: titrated from 100 nM) | binds | binds
B11 | – | – | no binding (tested: titrated from 100 nM) | binds | binds
B12 | – | – | no binding (tested: titrated from 100 nM) | binds | binds
B13 | – | – | no binding (tested: titrated from 100 nM) | – | –
